Test results from article PMC11649783, “Structural basis of 3′-tRNA maturation by the human mitochondrial RNase Z complex” (The EMBO Journal, 2024).

Target: T1, SDR5C1 (human, UniProt Q99714 1-261)
T1 construct: expression construct as previously described (Reinhard et al, 2017); The subcomplex was purified by Ni2+ IMAC and treated with TEV protease; also called 4xSDR5C1
T1 sequence: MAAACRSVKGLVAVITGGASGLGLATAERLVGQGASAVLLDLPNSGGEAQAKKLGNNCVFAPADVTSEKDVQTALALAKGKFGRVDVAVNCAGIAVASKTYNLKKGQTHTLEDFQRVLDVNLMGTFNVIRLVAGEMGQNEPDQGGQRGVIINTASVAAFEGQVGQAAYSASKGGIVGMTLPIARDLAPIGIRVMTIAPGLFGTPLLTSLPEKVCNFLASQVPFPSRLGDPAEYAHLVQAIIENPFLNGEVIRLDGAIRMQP
Experiment: cryo-EM structure; RNase Z-HS product complex: assembled at 4 °C from 10 μM TRMT10C/SDR5C1, 20 μM ELAC2 and 20 μM mt-tRNA^His-Ser(AGY) precursor with 200 μM SAM in buffer D (20 mM HEPES 7.5, 50 mM NaCl, 1 mM MgCl2, 1 mM DTT), S200 size exclusion, incubated to complete turnover; 2.9 Å
Conditions: both partners purified

B1: TRMT10C (enzyme, human, UniProt Q7L0Y3 40-403, looked up)
chain: MSSKIPAVTYPKNESTPPSEELELDKWKTTMKSSVQEECVSTISSSKDEDPLAATREFIEMWRLLGREVPEHITEEELKTLMECVSNTAKKKYLKYLYTKEKVKKARQIKKEMKAAAREEAKNIKLLETTEEDKQKNFLFLRLWDRNMDIAMGWKGAQAMQFGQPLVFDMAYENYMKRKELQNTVSQLLESEGWNRRNVDPFHIYFCNLKIDGALHRELVKRYQEKWDKLLLTSTEKSHVDLFPKDSIIYLTADSPNVMTTFRHDKVYVIGSFVDKSMQPGTSLAKAKRLNLATECLPLDKYLQWEIGNKNLTLDQMIRILLCLKNNGNWQEALQFVPKRKHTGFLEISQHSQEFINRLKKAKT
notes: TRMT10C, human; expression construct as previously described (Reinhard et al, 2017); The subcomplex was purified by Ni2+ IMAC and treated with TEV protease
- stoichiometry N: 2 mt-tRNA/TRMT10C per SDR5C1 tetramer
